Measurements from paper PMC6610660 (Structure (London, England : 1993), 2019).
Blank lines part the entries; values can stand above or below the molecule they belong to.

What was measured:
ScNatA/Naa50 = ScNatA/Naa50 (Saccharomyces cerevisiae, UniProt P07347+P12945+Q08689); test: X-ray crystal structure, […] Å; format: binding; conditions: site between Naa10 and Naa15
SpNatA = molecular target: T1, SpNatA (Schizosaccharomyces pombe, UniProt O74985+Q9UTI3); test: ITC; format: binding; conditions: 20 °C, pH 7.0, 200 mM NaCl, 1 mM DTT; Naa10 site
T1 sequence (Q9UTI3 1-156): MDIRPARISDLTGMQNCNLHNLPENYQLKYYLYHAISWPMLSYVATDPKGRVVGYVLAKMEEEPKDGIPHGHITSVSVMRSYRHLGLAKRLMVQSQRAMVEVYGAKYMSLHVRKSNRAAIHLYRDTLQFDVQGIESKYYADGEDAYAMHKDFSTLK
T1 sequence (O74985 1-729): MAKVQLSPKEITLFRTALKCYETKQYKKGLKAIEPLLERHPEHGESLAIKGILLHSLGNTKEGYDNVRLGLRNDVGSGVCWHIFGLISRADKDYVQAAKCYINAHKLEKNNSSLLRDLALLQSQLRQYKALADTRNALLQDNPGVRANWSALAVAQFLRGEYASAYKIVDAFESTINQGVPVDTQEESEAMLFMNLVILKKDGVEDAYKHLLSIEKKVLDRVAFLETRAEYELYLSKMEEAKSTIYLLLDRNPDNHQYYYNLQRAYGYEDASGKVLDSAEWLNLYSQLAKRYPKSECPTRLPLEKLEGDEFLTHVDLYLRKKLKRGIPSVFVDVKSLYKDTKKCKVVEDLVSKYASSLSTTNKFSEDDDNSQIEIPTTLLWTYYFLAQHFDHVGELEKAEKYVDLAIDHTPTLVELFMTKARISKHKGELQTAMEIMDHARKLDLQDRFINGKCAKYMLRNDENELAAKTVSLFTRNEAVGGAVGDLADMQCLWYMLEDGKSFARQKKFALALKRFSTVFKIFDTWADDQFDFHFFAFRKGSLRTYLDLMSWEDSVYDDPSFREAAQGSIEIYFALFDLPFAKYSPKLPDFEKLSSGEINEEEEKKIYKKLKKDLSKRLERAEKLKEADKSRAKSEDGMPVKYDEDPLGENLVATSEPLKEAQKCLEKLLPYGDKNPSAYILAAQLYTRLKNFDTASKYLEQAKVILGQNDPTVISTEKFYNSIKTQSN

GST-ScNaa50 = GST-ScNaa50 (Saccharomyces cerevisiae, UniProt Q08689); test: ITC; format: binding; conditions: 20 °C, pH 7.0, 200 mM NaCl, 1 mM DTT; GST fusion, free GST negative
[1] = molecular target: Schizosaccharomyces pombe Naa50 (S. pombe); test: differential scanning fluorimetry
[2] = molecular target: Schizosaccharomyces pombe Naa50 labeled with Fluorescein-5-Maleimide (S. pombe); test: fluorescence polarisation
human Naa50 = molecular target: T2, human Naa50 (human, UniProt Q9GZZ1 1-169); test: differential scanning fluorimetry
T2 sequence: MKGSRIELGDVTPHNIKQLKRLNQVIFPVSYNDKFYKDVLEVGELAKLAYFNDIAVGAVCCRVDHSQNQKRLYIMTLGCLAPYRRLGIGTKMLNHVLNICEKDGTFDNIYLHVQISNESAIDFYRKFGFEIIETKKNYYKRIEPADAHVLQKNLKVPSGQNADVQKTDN

Sequence of ScNatA/Naa50 (Q08689 whole entry, one chain of several): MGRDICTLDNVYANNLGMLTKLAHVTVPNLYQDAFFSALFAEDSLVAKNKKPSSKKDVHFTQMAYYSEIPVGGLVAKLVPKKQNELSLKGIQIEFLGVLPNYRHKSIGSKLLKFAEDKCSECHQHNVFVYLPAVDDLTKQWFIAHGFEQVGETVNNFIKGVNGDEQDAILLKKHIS
Sequence of GST-ScNaa50 (Q08689 whole entry, the tested form may be a part): as the sequence (Q08689 whole entry, one chain of several) above

Molecule: O=P(O)(O)O[C@H]1[C@H](OP(=O)(O)O)[C@@H](OP(=O)(O)O)[C@H](OP(=O)(O)O)[C@@H](OP(=O)(O)O)[C@H]1OP(=O)(O)O [IP6]
X-ray crystal structure, 2.7 Å (ScNatA/Naa50): Clear electron density for IP6 was visible between Naa10 and Naa15

Molecule: CC(=O)SCCNC(=O)CCNC(=O)[C@H](O)C(C)(C)COP(=O)(O)OP(=O)(O)OC[C@H]1O[C@@H](n2cnc3c(N)ncnc32)[C@H](O)[C@@H]1OP(=O)(O)O [acetyl-CoA]
dissociation constant (SpNatA): Representative ITC curve of acetyl-CoA titrated into SpNatA. The calculated dissociation constant is indicated
ITC (GST-ScNaa50): binding signal was detected by ITC between GST-ScNaa50 and acetyl-CoA

melting temperature of NatA with Naa50 added (NatA alone 37.8 °C) [1]: 40.4 °C
Kd [2]: 17 nM
B1: Schizosaccharomyces pombe NatA (SpNaa15/SpNaa10 complex), wild type (complex)
chain 1: MAKVQLSPKEITLFRTALKCYETKQYKKGLKAIEPLLERHPEHGESLAIKGILLHSLGNTKEGYDNVRLGLRNDVGSGVCWHIFGLISRADKDYVQAAKCYINAHKLEKNNSSLLRDLALLQSQLRQYKALADTRNALLQDNPGVRANWSALAVAQFLRGEYASAYKIVDAFESTINQGVPVDTQEESEAMLFMNLVILKKDGVEDAYKHLLSIEKKVLDRVAFLETRAEYELYLSKMEEAKSTIYLLLDRNPDNHQYYYNLQRAYGYEDASGKVLDSAEWLNLYSQLAKRYPKSECPTRLPLEKLEGDEFLTHVDLYLRKKLKRGIPSVFVDVKSLYKDTKKCKVVEDLVSKYASSLSTTNKFSEDDDNSQIEIPTTLLWTYYFLAQHFDHVGELEKAEKYVDLAIDHTPTLVELFMTKARISKHKGELQTAMEIMDHARKLDLQDRFINGKCAKYMLRNDENELAAKTVSLFTRNEAVGGAVGDLADMQCLWYMLEDGKSFARQKKFALALKRFSTVFKIFDTWADDQFDFHFFAFRKGSLRTYLDLMSWEDSVYDDPSFREAAQGSIEIYFALFDLPFAKYSPKLPDFEKLSSGEINEEEEKKIYKKLKKDLSKRLERAEKLKEADKSRAKSEDGMPVKYDEDPLGENLVATSEPLKEAQKCLEKLLPYGDKNPSAYILAAQLYTRLKNFDTASKYLEQAKVILGQNDPTVISTEKFYNSIKTQSN
chain 2: MDIRPARISDLTGMQNCNLHNLPENYQLKYYLYHAISWPMLSYVATDPKGRVVGYVLAKMEEEPKDGIPHGHITSVSVMRSYRHLGLAKRLMVQSQRAMVEVYGAKYMSLHVRKSNRAAIHLYRDTLQFDVQGIESKYYADGEDAYAMHKDFSTLK

increase of the melting temperature of NatA on addition of Naa50 [1]: 7.4 °C
B2: Saccharomyces cerevisiae NatA (ScNaa15/ScNaa10 complex), wild type (complex)
chain 1: MSRKRSTKPKPAAKIALKKENDQFLEALKLYEGKQYKKSLKLLDAILKKDGSHVDSLALKGLDLYSVGEKDDAASYVANAIRKIEGASASPICCHVLGIYMRNTKEYKESIKWFTAALNNGSTNKQIYRDLATLQSQIGDFKNALVSRKKYWEAFLGYRANWTSLAVAQDVNGERQQAINTLSQFEKLAEGKISDSEKYEHSECLMYKNDIMYKAASDNQDKLQNVLKHLNDIEPCVFDKFGLLERKATIYMKLGQLKDASIVYRTLIKRNPDNFKYYKLLEVSLGIQGDNKLKKALYGKLEQFYPRCEPPKFIPLTFLQDKEELSKKLREYVLPQLERGVPATFSNVKPLYQRRKSKVSPLLEKIVLDYLSGLDPTQDPIPFIWTNYYLSQHFLFLKDFPKAQEYIDAALDHTPTLVEFYILKARILKHLGLMDTAAGILEEGRQLDLQDRFINCKTVKYFLRANNIDKAVEVASLFTKNDDSVNGIKDLHLVEASWFIVEQAEAYYRLYLDRKKKLDDLASLKKEVESDKSEQIANDIKENQWLVRKYKGLALKRFNAIPKFYKQFEDDQLDFHSYCMRKGTPRAYLEMLEWGKALYTKPMYVRAMKEASKLYFQMHDDRLKRKSDSLDENSDEIQNNGQNSSSQKKKAKKEAAAMNKRKETEAKSVAAYPSDQDNDVFGEKLIETSTPMEDFATEFYNNYSMQVREDERDYILDFEFNYRIGKLALCFASLNKFAKRFGTTSGLFGSMAIVLLHATRNDTPFDPILKKVVTKSLEKEYSENFPLNEISNNSFDWLNFYQEKFGKNDINGLLFLYRYRDDVPIGSSNLKEMIISSLSPLEPHSQNEILQYYL
chain 2: MPINIRRATINDIICMQNANLHNLPENYMMKYYMYHILSWPEASFVATTTTLDCEDSDEQDENDKLELTLDGTNDGRTIKLDPTYLAPGEKLVGYVLVKMNDDPDQQNEPPNGHITSLSVMRTYRRMGIAENLMRQALFALREVHQAEYVSLHVRQSNRAALHLYRDTLAFEVLSIEKSYYQDGEDAYAMKKVLKLEELQISNFTHRRLKENEEKLEDDLESDLLE

B3: human NatA (hNaa15/hNaa10 complex), wild type (complex)
chain 1: MPAVSLPPKENALFKRILRCYEHKQYRNGLKFCKQILSNPKFAEHGETLAMKGLTLNCLGKKEEAYELVRRGLRNDLKSHVCWHVYGLLQRSDKKYDEAIKCYRNALKWDKDNLQILRDLSLLQIQMRDLEGYRETRYQLLQLRPAQRASWIGYAIAYHLLEDYEMAAKILEEFRKTQQTSPDKVDYEYSELLLYQNQVLREAGLYREALEHLCTYEKQICDKLAVEETKGELLLQLCRLEDAADVYRGLQERNPENWAYYKGLEKALKPANMLERLKIYEEAWTKYPRGLVPRRLPLNFLSGEKFKECLDKFLRMNFSKGCPPVFNTLRSLYKDKEKVAIIEELVVGYETSLKSCRLFNPNDDGKEEPPTTLLWVQYYLAQHYDKIGQPSIALEYINTAIESTPTLIELFLVKAKIYKHAGNIKEAARWMDEAQALDTADRFINSKCAKYMLKANLIKEAEEMCSKFTREGTSAVENLNEMQCMWFQTECAQAYKAMNKFGEALKKCHEIERHFIEITDDQFDFHTYCMRKITLRSYVDLLKLEDVLRQHPFYFKAARIAIEIYLKLHDNPLTDENKEHEADTANMSDKELKKLRNKQRRAQKKAQIEEEKKNAEKEKQQRNQKKKKDDDDEEIGGPKEELIPEKLAKVETPLEEAIKFLTPLKNLVKNKIETHLFAFEIYFRKEKFLLMLQSVKRAFAIDSSHPWLHECMIRLFNTAVCESKDLSDTVRTVLKQEMNRLFGATNPKNFNETFLKRNSDSLPHRLSAAKMVYYLDPSSQKRAIELATTLDESLTNRNLQTCMEVLEALYDGSLGDCKEAAEIYRANCHKLFPYALAFMPPGYEEDMKITVNGDSSAEAEELANEI
chain 2: MNIRNARPEDLMNMQHCNLLCLPENYQMKYYFYHGLSWPQLSYIAEDENGKIVGYVLAKMEEDPDDVPHGHITSLAVKRSHRRLGLAQKLMDQASRAMIENFNAKYVSLHVRKSNRAALHLYSNTLNFQISEVEPKYYADGEDAYAMKRDLTQMADELRRHLELKEKGRHVVLGAIENKVESKGNSPPSSGEACREEKGLAAEDSGGDSKDLSEVSETTESTDVKDSSEASDSAS
melting temperature of NatA with Naa50 added (NatA alone 44 °C) (human Naa50): 46.6 °C
